Assay results from the supplement of paper PMC7125110.
± gives the standard error. Variants at the floor of the assay were thinned out.

B1: glmS ribozyme (parent)
chain: AUAAAAGCGCCAGAACUACAGAAAUGUAGUUGACGAGGAGGAGGUUUAUCGAAUUUUCGGCGGAUGCCUCCAAA

Legend:
Details in all cases: with glucosamine-6-phosphate
[1] = variants of: B1; test: self-cleavage kobs at 160 uM GlcN6P; higher = faster cleavage; RNA array
Summary of the method: (§1)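 Barcoded glmS ribozyme variants on sequenced MiSeq chips were transcribed in situ by E. coli RNA polymerase and tracked through a hybridised Cy3 probe at 37 °C. Glucosamine-6-phosphate (40 μM to 10 mM) in HEPES/KCl/Mg(OAc)2 buffer was flowed in, and tiles were imaged over ~14 h. Signals were normalised to baseline and to non-cleaving reference variants; per-tile medians were fit to one- or two-exponential decays to give kobs. kcat and KM came from weighted Michaelis–Menten fits across concentrations.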

[2] = variants of: B1; test: self-cleavage kobs at 640 uM GlcN6P; higher = faster cleavage; RNA array
Summary of the method: as §1

[3] = variants of: B1; test: self-cleavage kobs at 2500 uM GlcN6P; higher = faster cleavage; RNA array
Summary of the method: as §1

[4] = variants of: B1; test: self-cleavage kobs at 10000 uM GlcN6P; higher = faster cleavage; RNA array
Summary of the method: as §1

Row | Variant | self-cleavage kobs at 160 uM GlcN6P [1] [s⁻¹] | self-cleavage kobs at 640 uM GlcN6P [2] [s⁻¹] | self-cleavage kobs at 2500 uM GlcN6P [3] [s⁻¹] | self-cleavage kobs at 10000 uM GlcN6P [4] [s⁻¹]
1 | AUAAAAGCGCCAGAACUACAGAAAUGUAGUUAACGAGGAGGAGGUUUAUCGACUUUUCGGCGGAUGCCUCUAAA [G32A A53C C71U] | 3.67e-05 ± 1.6e-05 | 7.17e-05 ± 2.3e-05 | 0.000197 ± 4.7e-05 | –
2 | AUAAAAGCGACAGAACUACAGAAAUGUAGUUGACGAGAAGUAGAUUUAUCGAAUUUUCUGCGGAUGCCUCCAAA [C10A G38A G41U G44A G59U] | < 1e-05 | < 1e-05 | < 1e-05 | –
3 | AUAAACGCGCCAGAAUUACAGAAAUGUAGUUGACGAGGAAGAGGUUUAUCGAAUUUCCGGCGGAUGCCACCAAA [A6C C16U G40A U57C U69A] | < 1e-05 | – | – | –
4 | AUAAAAGCGCCAGCACUACAGAAAUGUAGUUGACGAGGAGGAGGUUAAUCGAAUUUUGGGCGGAUGGCCCCAAA [A14C U47A C58G C67G U69C] | 7.17e-05 ± 3.1e-05 | 9.78e-05 ± 3.1e-05 | – | –
5 | AUAAAAGCGCCAGAACUACAGAAAUGUAGUUGACGAGGAGGAGGUUUAUCGAAUUUUCGGGAGAUGUAUCCAAA [C61G G62A C67U C68A] | 0.000136 ± 2.6e-05 | 4.43e-05 ± 1.5e-05 | 0.000107 ± 2.2e-05 | –
6 | AUAAAACCGCCACAACUACAGAAAUGUAGUUGACGAGGAGGAGGUUUGUCGAAUUUUCGGCGGAUGCCUACAAA [G7C G13C A48G C70A] | < 1e-05 | < 1e-05 | < 1e-05 | –
7 | AUAAAAGCGCCUGACCUACAGAAAUGUAGUUGACGAGGAGGAGGCUUCUCGAAUUUUCGGCGGAUGCCUCCAAA [A12U A15C U45C A48C] | < 1e-05 | – | < 1e-05 | –
8 | AUAAAGGCGCCAGAACUACAGAAAUGUAGUUGACGAGGAGGAGGUUUAUCGAAUUUUCGGCGGAUGCCCCCAAA [A6G U69C] | < 1e-05 | – | – | 2.56e-05 ± 1e-05
9 | AUAAAAGCGCCAGAACUACAGAAAUGUAGUUGAUGAGGAGGAGGUUUAUCGAAUUGUCGGCGGAUGCCUCCAAA [C34U U56G] | < 1e-05 | – | < 1e-05 | –
10 | AUAAAGGCGCCAGAACUACAGAAAUGUAGUUGACGAGGAGGAGGUUUAUCGAAUUUUUGGCGGACGCCUCCAAA [A6G C58U U65C] | < 1e-05 | – | < 1e-05 | –
11 | AUAAAAGCGCCAGGACUACAGAAAUGUAGUUGACGCGGAGGAGCUUUAUCAAAUUUUCGGCAGAUGCCUCCAAA [A14G A36C G44C G51A G62A] | < 1e-05 | – | – | –
12 | AUAAAAGCGCCAGAACUACAGAAAUGUAGUUGACUAGGAGGAGGUUUAGCGAAUUUUCGGCGGAUGCCUCCAAA [G35U U49G] | < 1e-05 | < 1e-05 | < 1e-05 | < 1e-05
13 | AUAAAAGCGCCAGAACUACAGAAAUGUAGUUGCCGAGGAGGAGGUUUAUCGAAUUUUCCGGGGGUGCCUCCAAA [A33C G59C C61G A64G] | < 1e-05 | < 1e-05 | – | –
14 | AUAAAAGCGCCAGAACUACAGAAAUGUAGUUGACGAGAAGGAGGUUUAUCGAAUUUUCGUCGGAUGCCUCCAAA [G38A G60U] | < 1e-05 | < 1e-05 | < 1e-05 | < 1e-05
15 | AUAAAAGCGCGAGAACUACAGAAAUGUAGUUGACGAGGAGGAGGUUAAUCGAAUUUUCGGCGGAUGCCUCCAAA [C11G U47A] | < 1e-05 | < 1e-05 | – | < 1e-05
16 | AUAAAAGUGCCAGAACUACAGAAAUGUAGUUAACGAGGAGGAGGUUUAUCGAAUUUUCGGCGGAUGCCUCCAAA [C8U G32A] | < 1e-05 | – | < 1e-05 | < 1e-05
17 | AUAAAAGCGCCAGAACUACAGAAAUGUAGUUGGCGAGGUGGAGGUUUAUCGAAUUUUCGGCGGUUGCCUGCAAA [A33G A39U A64U C70G] | < 1e-05 | – | < 1e-05 | –
18 | AUAAAAGCGCCGGAACUACAGAAAUGUAGUUGACGAGGAGGAGGUCUUUCGAAUUUUCGGCGGAUGCCUCCAAA [A12G U46C A48U] | < 1e-05 | – | – | –
19 | AUAAAAUCGCCAGAACUACAGAAAUGUAGUUGACGAGGAGGAGGUUUAUCGACUUUUCGGCGGAUGCCUCCAAA [G7U A53C] | < 1e-05 | < 1e-05 | – | < 1e-05
20 | AUAAAAGCGCCAGAACUACAGAAAUGUAGUUGGAGAGGAGGAGGUUUAUCGAAUAUUCGGCGGAUGCCUACAAA [A33G C34A U55A C70A] | 0.00034 ± 0.00013 | 9.12e-05 ± 3.4e-05 | – | –
21 | AUAAAAGCGCCAGAACUACAGAAAUGUAGUUGACGAGGAGGAGGUUUAUCGAACUAUCCGCGGAAGCCUCCAAA [U54C U56A G59C U65A] | < 1e-05 | – | < 1e-05 | –
22 | AUAAAAGCGCCAGAACUACAGAAAUGUAGUUGAUGAGGAGGAGGUUUAUGGAAUUUUCGGCGGAUGCAUCCAAA [C34U C50G C68A] | 9.29e-05 ± 2.9e-05 | – | 9.73e-05 ± 2.8e-05 | –
23 | AUAAAAGCGCCAGAACUACAGAAAUGUAGUUGUCGAGGAGGAGGUUUAUCGAAUUUUCGGCGGAUGCAUGCAAA [A33U C68A C70G] | < 1e-05 | – | < 1e-05 | –
24 | AUAAAAGCGCCAGAACUACAGAAAUGUAGUUGAAGAGGAGGUGGUUUAUCGAAUUUUCGGCGGAUGCCUCCAAA [C34A A42U] | < 1e-05 | < 1e-05 | < 1e-05 | < 1e-05
25 | AUAAAAGCGCCAGAACUACAGAAAUGUAGUUGACGCGGAGCAGGUUUAUCGAAUUUUCGGCGGAUGCCUCCAAA [A36C G41C] | < 1e-05 | < 1e-05 | < 1e-05 | < 1e-05
26 | AUAAAAGUGCCAGAACUACAGAAAUGUAGUUGACGAGGAGGAGGUUUAUCGAAUUUUCGGCGGAUCCCUCCAAA [C8U G66C] | < 1e-05 | < 1e-05 | < 1e-05 | < 1e-05
27 | AUAAAAGCGCCAUAGCUACAGAAAUGUAGUUGACCAGGAGGAGGUUUAUCGUAUUUUCGGCGGAUGCCUCCAAA [G13U A15G G35C A52U] | < 1e-05 | < 1e-05 | < 1e-05 | –
28 | AUAAAAGCGCCAGAACUACAGAAAUGUAGUUGACGAGGAGUAGGCUUAUCGAAUUUUCUGCGGAUGCCUCCAAA [G41U U45C G59U] | < 1e-05 | < 1e-05 | < 1e-05 | –
29 | AUAAAAGCGCCAGAACUACAGAAAUGUAGUUGACGAGGAGGAGGUUUAUCGAAUAUUCGGCGGGUGCCUCAAAA [U55A A64G C71A] | 0.000178 ± 4.2e-05 | 0.000572 ± 0.00013 | – | –
